According to publication PMC3303851, “Structural Basis of Ets1 Cooperative Binding to Widely Separated Sites on Promoter DNA” (PLoS ONE, 2012):

Target: the molecule itself
Experiment: crystal structure; Ets1 280-441 mixed 1:1.05 with TCRα promoter dsDNA; (Ets1)2•2DNA crystals grown at 295 K, space group P2_(1), refined at 3.1 Å; asymmetric unit holds an Ets1 homodimer and two pieces of dsDNA

B1: Ets1 (residues 280–441) (domain or fragment, UniProt P14921 280-441, looked up)
chain: VPSYDSFDSEDYPAALPNHKPKGTFKDYVRDRADLNKDKPVIPAAALAGYTGSGPIQLWQFLLELLTDKSCQSFISWTGDGWEFKLSDPDEVARRWGKRKNKPKMNYEKLSRGLRYYYDKNIIHKTAGKRYVYRFVCDLQSLLGYTPEELHAMLDVKPDADE
notes: also called Ets1 dimer; source: cloned, expressed and purified according to reported protocols [36]
- stoichiometry N: 2
